This is an account of results in the Immune Epitope Database (IEDB).

A word on the Kd: it is the free concentration of one partner at which half of the binding sites on the other are occupied at equilibrium, for simple one-to-one binding. Low values mean tighter binding, high ones weaker binding.

The target of assay [1] is HLA-A*02:01. In words: IEDB peptide-MHC binding, purified MHC/competitive/fluorescence; filed as Kd, often an IC50 or EC50 that approximates it; ≥ and ≤ were set here for values at or beyond the usual limits of such assays. Conditions: source organism: Human immunodeficiency virus 1.
The target of assay [2] is HLA-A*02:06. Described as above. Conditions: source organism: Human immunodeficiency virus 1.
The target in assay [3] is HLA-B*15:09. Described as above.
The target in assay [4] is HLA-A*26:02. The assay is described as above. Conditions: source organism: Human immunodeficiency virus 1.
Assay [5] has as its target HLA-A*02:03. Described as above. As to conditions: source organism: Human immunodeficiency virus 1.
Assay [6] addresses HLA-A*26:01. The description is as above. As to conditions: source organism: Human immunodeficiency virus 1.
For assay [7], the target named is HLA-A*68:02. The description is as above. As to conditions: source organism: Human immunodeficiency virus 1.
Assay [8] addresses HLA-B*07:02. The description is as above. As to conditions: source organism: Human immunodeficiency virus 1.
The target of assay [9] is HLA-B*08:01. The assay is described as above. As to conditions: source organism: Human immunodeficiency virus 1.
For assay [10], the target named is HLA-A*30:01. The description is as above. Conditions: source organism: Human immunodeficiency virus 1.
The target of assay [11] is HLA-A*69:01. The description is as above. Conditions: source organism: Bacillus anthracis str. A0488.
The target of assay [12] is HLA-A*02:01. In words: IEDB peptide-MHC binding, purified MHC/direct/fluorescence; filed as Kd, often an IC50 or EC50 that approximates it; ≥ and ≤ were set here for values at or beyond the usual limits of such assays.
Assay [13] addresses HLA-B*51:01. The description is as above.
Assay [14] addresses HLA-B*58:01. The assay is described as above. Conditions: source organism: Bacillus anthracis.
In assay [15] the target is HLA-B*18:01. The description is as above.
Assay [16] has as its target HLA-B*27:05. The assay is described as above. As to conditions: source organism: Bacillus anthracis.
Assay [17] deals with HLA-B*15:17. Described as above.
Assay [18] concerns the target HLA-A*03:01. Described as above.
Assay [19] has as its target HLA-A*11:01. The description is as above. As to conditions: source organism: Bacillus anthracis.
Assay [20] concerns the target HLA-B*38:01. Described as above. Conditions: source organism: Bacillus cereus 03BB108.
Assay [21] deals with HLA-B*57:01. Described as above.
In assay [22] the target is HLA-A*31:01. The assay is described as above. Conditions: source organism: Bacillus anthracis.
Assay [23] addresses HLA-B*48:01. The description is as above. As to conditions: source organism: Bacillus anthracis.
The target in assay [24] is HLA-B*07:02. The assay is described as above. Conditions: source organism: Bacillus anthracis.
Assay [25] deals with HLA-B*15:01. The description is as above.
Assay [26] concerns the target HLA-A*30:01. Described as above. Conditions: source organism: Bacillus cereus 03BB108.
Assay [27] has as its target HLA-A*01:01. Described as above. As to conditions: source organism: Bacillus anthracis.
Assay [28] has as its target HLA-B*40:01. The assay is described as above. As to conditions: source organism: Bacillus anthracis.
Assay [29] addresses HLA-B*46:01. The assay is described as above.
For assay [30], the target named is HLA-A*02:12. The description is as above. Conditions: source organism: Cryptosporidium parvum Iowa II.
The target of assay [31] is HLA-A*69:01. Described as above. Conditions: source organism: Cryptosporidium parvum Iowa II.
In assay [32] the target is HLA-A*02:19. The description is as above. Conditions: source organism: Cryptosporidium parvum Iowa II.
Assay [33] concerns the target HLA-B*27:03. Described as above. Conditions: source organism: Cryptosporidium parvum Iowa II.
Assay [34] concerns the target HLA-A*02:16. The description is as above. Conditions: source organism: Cryptosporidium parvum Iowa II.
The target in assay [35] is HLA-A*24:03. Described as above. Conditions: source organism: Cryptosporidium parvum Iowa II.
In assay [36] the target is HLA-A*02:03. The description is as above. As to conditions: source organism: Cryptosporidium parvum Iowa II.
Assay [37] deals with HLA-A*26:01. The assay is described as above. As to conditions: source organism: Cryptosporidium parvum Iowa II.
The target in assay [38] is HLA-A*02:11. The description is as above. As to conditions: source organism: Cryptosporidium parvum Iowa II.
Assay [39] addresses HLA-A*68:02. The description is as above. As to conditions: source organism: Cryptosporidium parvum Iowa II.
The target in assay [40] is HLA-A*29:02. The description is as above. Conditions: source organism: Cryptosporidium parvum Iowa II.
Assay [41] concerns the target HLA-B*39:01. Described as above. As to conditions: source organism: Cryptosporidium parvum Iowa II.
[42] abbreviates: source organism: Bacillus anthracis.
Where [43] appears, read: source organism: Cryptosporidium parvum Iowa II.

On to EIKSLFNTI, for which the Kd in assay [1] is not below 20 µM; in [2] it was 0.0617 µM; in assay [3] (source organism: Human immunodeficiency virus 1), not below 20 µM; in assay [4] it was not below 20 µM; in assay [5] it was not below 20 µM; in assay [6], not below 20 µM. Also, the Kd in [7] is 0.036 µM; in assay [8], 6 µM; in [9], 1.62 µM; in [10] it was not below 20 µM.
In the case of WFREDRSPV, the Kd is not below 20 µM in assay [11]; not below 20 µM in assay [3] (source organism: Bacillus anthracis str. A0488); not below 20 µM in assay [12] (setting [42]); not below 20 µM in assay [13] (setting [42]); not below 20 µM in assay [14]; 0.145 µM in [15] (setting [42]). The Kd in assay [16], in assay [17] (setting [42]), in assay [18] (setting [42]), in [19], in assay [20] and in [21] (setting [42]) was not below 20 µM in each case. The Kd in assay [22], in assay [23], in assay [24], in assay [25] (setting [42]), in assay [26] and in assay [27] was not below 20 µM in each case. Moreover, the Kd in assay [28] and in assay [29] (setting [42]) was not below 20 µM each time.
Turning to DHIPIINTL, the dissociation constant (Kd) in [30], in [31], in assay [12] (setting [43]), in assay [13] (setting [43]), in [32] and in [33] was not below 20 µM throughout. Besides, the Kd in [15] (setting [43]), in [17] (setting [43]), in [34], in assay [35], in assay [36] and in assay [18] (setting [43]) was not below 20 µM throughout. Also, the Kd in [21] (setting [43]), in [37], in assay [38], in assay [39], in assay [40] and in [25] (setting [43]) was not below 20 µM in each case. For the same sequence, the Kd in [29] (setting [43]) is not below 20 µM.
For the sequence ILTRLALFF, the Kd in [30], in [31], in assay [13] (setting [43]), in [32], in assay [33] and in assay [15] (setting [43]) was not below 20 µM in each case. Moreover, the Kd in assay [17] (setting [43]), in [34], in assay [35], in assay [36], in assay [18] (setting [43]) and in [41] was not below 20 µM throughout. Further, the Kd in assay [21] (setting [43]), in assay [37], in assay [38], in assay [39], in assay [25] (setting [43]) and in assay [29] (setting [43]) was not below 20 µM throughout.
